Test results published in US20060253917A1 (published 2006).
Ends that are not written are not given here.

T1: OsCHIB1 aa 10-200 (Oryza sativa)
T1 construct: bait, Gal4 DBD fusion; also called PN19651; O. sativa Chitinase, Class III
T1 chain: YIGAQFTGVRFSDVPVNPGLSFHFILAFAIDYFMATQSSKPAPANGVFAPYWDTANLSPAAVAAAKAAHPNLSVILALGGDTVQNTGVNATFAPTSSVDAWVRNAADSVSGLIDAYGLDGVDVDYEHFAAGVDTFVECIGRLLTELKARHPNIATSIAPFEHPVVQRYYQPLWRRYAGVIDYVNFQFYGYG

T2: Os018989-4003 aa 90-220 (Oryza sativa)
T2 construct: bait, Gal4 DBD fusion; also called PN21044
T2 chain: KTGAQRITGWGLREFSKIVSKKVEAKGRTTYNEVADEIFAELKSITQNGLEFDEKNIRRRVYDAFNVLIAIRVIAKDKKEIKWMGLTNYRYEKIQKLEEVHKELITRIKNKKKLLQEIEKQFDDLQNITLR

T3: OsS49462 aa 1-100 (Oryza sativa, UniProt Q01J96 179-278)
T3 construct: bait, Gal4 DBD fusion; also called PN20325; O. sativa Cyclin OsS49462, Fragment
T3 sequence: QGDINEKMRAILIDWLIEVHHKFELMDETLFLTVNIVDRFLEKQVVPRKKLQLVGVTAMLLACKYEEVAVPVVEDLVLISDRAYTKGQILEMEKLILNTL

T4: OsRAP1B aa 30-180 (Oryza sativa, UniProt Q10CQ1 30-180)
T4 construct: bait, Gal4 DBD fusion; also called PN20232
T4 sequence: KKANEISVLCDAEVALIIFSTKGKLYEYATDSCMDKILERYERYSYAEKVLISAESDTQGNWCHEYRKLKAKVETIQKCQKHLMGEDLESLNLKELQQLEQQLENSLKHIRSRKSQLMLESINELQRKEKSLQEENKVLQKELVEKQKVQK

T5: OsCAA90866 aa 100-250 (Oryza sativa)
T5 construct: bait, Gal4 DBD fusion; also called PN20311; O. sativa Chilling-Inducible Protein CAA90866
T5 chain: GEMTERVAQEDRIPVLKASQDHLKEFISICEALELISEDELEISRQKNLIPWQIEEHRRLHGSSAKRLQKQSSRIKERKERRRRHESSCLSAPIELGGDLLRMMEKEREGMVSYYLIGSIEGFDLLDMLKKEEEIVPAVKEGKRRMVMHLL

B1: OsPN22823 aa 25-106 (other)
chain: SSSGKKVPLFSLFRYADRLDVLLMVVGTVGALGNGISQPLMTVLFGNVINSFGANTSGSVLRSVTKVKVSCWTMAGERQSAR
notes: prey, AD fusion; also called Novel Protein PN22823, Similar to ABC Transporter Proteins
B2: OsPN22020 aa 76-170 (other)
chain: ANATDGVKPLVGSARLPLRDVLADTGIGARASRSLRLKRPSGRPHGRLEVRVAVREPKRYYDPSPAYPAPYHQQTNRDPYAYGNTTTGGYGYAYG
notes: prey, AD fusion; also called Novel Protein PN22020, Fragment, Similar to A. thaliana Putative Protein
B3: OsPN22020 aa 128-170 (other)
chain: AVREPKRYYDPSPAYPAPYHQQTNRDPYAYGNTTTGGYGYAYG
modifications: not fully specified
notes: prey, AD fusion
B4: OsPN29041 aa 5-108 (other)
chain: VQIRRALRALVDDHTDGLMDFEDTEVRSSEETDALEEARLAIEQVVIPKGESVQLLPRPPSIIASQVDLVESFKLKWESIGQEPNACLRILPQFVGVEEGGKSV
notes: prey, AD fusion; also called Novel Protein PN29041, Fragment, Similar to A. thaliana Putative ATPase
B5: OsORF020300-2233.2 aa 93-387 (other)
chain: LLVPYYLGEMTERVAQEDRIPVLKASQDHLKEFISICEALELISEDELELSRQKQPDTMANRRAQKAARFKRQKAAETKLLEIKERKERRRRSLRAAALSAPIEAGEEDAFEDDGEEEREAWLATISLALCKAFDLLDMLKKEEEMLLAVKERQAKDGNAFAREMLDERTKKAEAWHHNAANRAPYSKPADPITCATFAQDVIEGRASVSQAHEHKHQPLIFGPASLVGGGLTSERERMAAQVFQPSYRLPTMSIEEAGLREMKMMEKWQERTAKMIQESNSAWHKDGSRSAQED
notes: prey, AD fusion; also called PN21639; Hypothetical Protein ORF020300-2233.2, Putative PP2A Regulatory Subunit, Similar to OsCAA90866
B6: OsPN23268 aa 12-200 (other)
chain: SEEEAEATLRLLLEEENEARIAAFLVLLRAKGETYEEIVGLAKAMIGCCVRVDGLDDAVDIVGTGGDGADTVNISTGSTILAAAAGAKVAKQGSRASSSACGSADGIKRCVNEVGVGFMMSANYHPAMKIVKPVRKKLKIKTVFNILGPLLNPARVPYAVIGVYHENIVTKMAKAAQKFGMKRALVVHS
notes: prey, AD fusion; also called Novel Protein 23268, Similar to Phosphoribosylanthranilate Transferase, Chloroplast Precursor, Fragment
B7: OsPN26645 aa 24-164 (other)
chain: PLPEACPVPTAAEEILGPGGTCTTLDRRGDPVGVIEGDEVTLAKAITLLHMNKDDYIAVLFYASWCPFSQECKPNFEILASLFPSIRHFAFEESSIRPSIISRYGIHGFPTLFLLNSTMRVRYHGPRTVKSLAAFYRDVSG
notes: prey, AD fusion; also called Novel Protein PN26645, Putative Protein Disulfide Isomerase-Related Protein Precursor
B8: OsAAK63900 aa 122-224 (other)
chain: AAVAGKTHYRSALCASVTICGPIKKKIIDHFHKKPVPPKPEPKPEPPKPKPEPEHPFLDHIHKKEKHFFDHFHKKPVPPKPEPKPEPKPQPAPEYHNPSPPAN
notes: prey, AD fusion; also called PN23266; O. sativa Putative Proline-Rich Protein AAK63900
B9: OsORF020300-2233.2 aa 118-388 (other)
chain: SQDHLKEFISICEALELISEDELELSRQKQPDTMANRRAQKAARFKRQKAAETKLLEIKERKERRRRSLRAAALSAPIEAGEEDAFEDDGEEEREAWLATISLALCKAFDLLDMLKKEEEMLLAVKERQAKDGNAFAREMLDERTKKAEAWHHNAANRAPYSKPADPITCATFAQDVIEGRASVSQAHEHKHQPLIFGPASLVGGGLTSERERMAAQVFQPSYRLPTMSIEEAGLREMKMMEKWQERTAKMIQESNSAWHKDGSRSAQEDE
notes: prey, AD fusion; also called PN21639
B10: OsAAK72891 aa 339-651 (other)
chain: ELDLQEKTEELFKFKREKGLLTLKNDVEFEPLRKKIPQIISRMDQIISKNIKMPSLCMTNDGLDERCISAKRIDSLYYENQHLRGLLADNMKDVKELSSQLSEASKEMSIQLSSEDDLLRQIAKIKEEYEDLQIEAGVRDGVYQTITRKLLDDSMNSMHDAATNFSTELSSLEAMISEKEKALCLSNEENRMLKEKIAELEQCLIQDKQEDPEVIKQESTEIILRDIEVAPHISPRRSHETPKQDMQYDELVKLNSSLEIASAALKEVENKNIDYNGIFTKNEQEKQLECILISIMKLSKEFVEIEQKLSVER
notes: prey, AD fusion; also called PN26317
B11: OsPN29957 aa 28-214 (other)
chain: EVSFSIRVAKGRGIFEKLGRLAKPRVLALTVKQSTKGEAAKAFLRVLKYSSGAVLEPAKLYKLKHLTKVEVISNDPSGCTFVLGFDNLRSQSVAPPQWTMRNIDDRNRLLFSILTMCKEILSYLPKVVGIDFVELALWAKENTVTLDNQSSTQDGQEKSVTTQTERKVTVTVENDLGSQAKDEEEDM
notes: prey, AD fusion
B12: OsPN23484 aa 111-194 (other)
chain: GREDREREVQEELASLSDLAASYHSRLQSHGIDPDSFSDDGEEEQHDEEDGEEVEQIDTAALQTDGSSGGDSIGGMQVKAMVDD
notes: prey, AD fusion; also called Novel Protein PN23484, heavy meromyosin
B13: OsPN29957 aa 51-288 (other)
chain: PRVLALTVKQSTKGEAAKAFLRVLKYSSGAVLEPAKLYKLKHLTKVEVISNDPSGCTFVLGFDNLRSQSVAPPQWTMRNIDDRNRLLFSILTMCKEILSYLPKVVGIDFVELALWAKENTVTLDNQSSTQDGQEKSVTTQTERKVTVTVENDLGSQAKDEEEDMEALLDTYVMGIGEADAFSERLKQELVALEAANVYQLLQSEPLIDEVLQGLDAASATVDDMDEWLRIFNMKLRHM
notes: prey, AD fusion; also called Novel Protein PN29957, Fragment, unknown
B14: OsPN29942 aa 11-182 (other)
chain: VDTSNEIKEIVIDDMEPKVFQAGFLFMYRDNLVGDDELSASSSDCSIFDTLAGKLLAAADRYELPRLRLLCESYLCKHISVNSVATTLALADRHHAMELKSVCLKFAAENLSAVIRTDGFDYLKDNCPALQSEILRTVAGCEEECSSGGKSQSVWGQLSDGGDTSGRRVRPR
notes: prey, AD fusion; also called Novel Protein PN29942, Fragment, zinc finger protein
B15: PN25358 aa 303-472 (other)
chain: VSASEFYSQSAIYVAAAHALKPNYSVYRSALRLVRSMLPLPYLKVGYLIAPPENSAIAPHKEWERSQFVLNHEELQQVNASDQPPSQSPGHVDSGRKLFRIVVADIVSVSACADLTLPPGAGLRIDTIHGPRFLVADNWETIDSWLDAIRLVYTIFARGRSDVLAGIITG
notes: prey, AD fusion; also called Hypothetical Protein AAK39589
B16: OsMADS8 aa 109-248 (other)
chain: RTQRNLLGEDLGTLGIKELEQLEKQLDSSLRHIRSTRTQHMLDQLTDLQRREQMLCEANKCLRRKLEESNQLHGQVWEHGATLLGYERQSPHAVQQVPPHGGNGFFHSLEAAAEPTLQIGFTPEQMNNSCVTAFMPTWLP
notes: prey, AD fusion; also called PN20778
B17: OsMADS8 aa 74-183 (other)
chain: SYGGPDTAIQNKENELVQSSRNEYLKLKARVENLQRTQRNLLGEDLGTLGIKELEQLEKQLDSSLRHIRSTRTQHMLDQLTDLQRREQMLCEANKCLRRKLEESNQLHGQ
notes: as for B16
B18: OsMADS5 aa 121-225 (other)
chain: LSLKELEQLENQIEISLMNIRSSKNQQLLDQVFELKRKEQQLQDANKDLKRKIQETSGENMLHISCQDVGPSGHASEANQEFLHHAICDPSLHIGYQAYMDHLNQ
notes: prey, AD fusion; also called PN20770
B19: OsORF020300-2233.2 aa 1-206 (other)
chain: MVEVEEVSNKMQAQMRLHPAAAAEEEDADLPLPALFDKASHLHSLASSSSLDQEGIRKGVDLLRRCDEMVSKLGLFSSNETKDDVSTANLKYLLVPYYLGEMTERVAQEDRIPVLKASQDHLKEFISICEALELISEDELELSRQKQPDTMANRRAQKAARFKRQKAAETKLLEIKERKERRRRSLRAAALSAPIEAGEEDAFEDD
notes: as for B9
B20: OsORF020300-2233.2 aa 1-190 (other)
chain: MVEVEEVSNKMQAQMRLHPAAAAEEEDADLPLPALFDKASHLHSLASSSSLDQEGIRKGVDLLRRCDEMVSKLGLFSSNETKDDVSTANLKYLLVPYYLGEMTERVAQEDRIPVLKASQDHLKEFISICEALELISEDELELSRQKQPDTMANRRAQKAARFKRQKAAETKLLEIKERKERRRRSLRAAA
notes: as for B9
B21: OsPN29883 aa 58-175 (other)
chain: YGQLKAAQPFFLLAGPNVIESEEHVLKMAKHIKGITTKLGLPLVFKSSFDKANRTSSKSFRGPGLEEGLKILEKVKATYDIPVVTDVHESHQCEAAGRVADIIQIPAFFCRQTDLLVA
notes: prey, AD fusion; also called Novel Protein PN29883, Fragment
B22: OsCAA90866 aa 1-126 (other)
chain: MVEVEEVSNKMQVQMRLHPAAAAEEEDADLPLPALFDKASHLHSLASSSSLDQEGIRKGVDLLRRCDEMVSKVGLFSSNETKDDISTANLKYLLVPYYLGEMTERVAQEDRIPVLKASQDHLKEFI
notes: prey, AD fusion; also called PN20311

Target: T1, OsCHIB1 aa 10-200
Assay: Y2H; input trait library
In short: (§1)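 Using an automated, high-throughput yeast two-hybrid assay provided by Myriad Genetics Inc. (Salt Lake City, Utah), protein-protein interactions were detected. Against either the input trait or the output trait rice prey library, a bait clone encoding a defined amino-acid fragment of a rice protein was screened. The encoding sequences of the prey clones that were retrieved were then compared against databases by BLAST to identify the interacting proteins.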

| Binder | binding result |
| --- | --- |
| B1 | binds |
| B2 | binds |
| B3 | binds |
| B4 | binds |

What follows are binders tested against T6, OsPP2A-2 aa 1-308 (Oryza sativa, UniProt A2XN40 1-307) (assay: Y2H; input trait library).
T6 construct: bait, Gal4 DBD fusion; also called PN20254; O. sativa Serine/Threonine Protein Phosphatase PP2A-2, Catalytic Subunit
T6 sequence (A2XN40 whole entry, the tested form may be a part): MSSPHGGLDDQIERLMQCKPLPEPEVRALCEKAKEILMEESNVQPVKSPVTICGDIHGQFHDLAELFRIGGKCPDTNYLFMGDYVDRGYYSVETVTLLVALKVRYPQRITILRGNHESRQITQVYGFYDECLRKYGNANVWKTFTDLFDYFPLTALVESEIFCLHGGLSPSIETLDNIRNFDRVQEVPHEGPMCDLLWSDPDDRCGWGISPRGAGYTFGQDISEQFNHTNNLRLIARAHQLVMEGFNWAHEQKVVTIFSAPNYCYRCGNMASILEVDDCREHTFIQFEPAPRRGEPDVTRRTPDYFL
In short: as §1

| Binder | binding result |
| --- | --- |
| B5 | binds |
| B6 | binds |
| B7 | binds |
| B8 | binds |
| B9 | binds |

Target: T2, Os018989-4003 aa 90-220
Assay: Y2H; output trait library
In short: as §1

| Binder | binding result |
| --- | --- |
| B10 | binds |

These binders were tested against T3, OsS49462 aa 1-100 (assay: Y2H; output trait library).
In short: as §1

| Binder | binding result |
| --- | --- |
| B11 | binds |
| B12 | binds |
| B13 | binds |
| B14 | binds |
| B15 | binds |

What follows are binders tested against T4, OsRAP1B aa 30-180 (assay: Y2H; output trait library).
In short: as §1

| Binder | binding result |
| --- | --- |
| B16 | binds |
| B17 | binds |
| B18 | binds |

Target: T5, OsCAA90866 aa 100-250
Assay: Y2H; output trait library

| Binder | binding result |
| --- | --- |
| B19 | binds |
| B20 | binds |
| B21 | binds |
| B22 | binds |
